Laboratory results as given in patent US20260234655A1, “Nuclear Targeted DNA Delivery and Compositions for Use in Practicing the Same” (Seawolf Therapeutics, Inc., priority 2022, published 2026).
“Also recorded” adds a separate entry of the source.

Legend:
[1] = test system: growth-arrested HepG2 cells; assay: Arrayed DTS screen in growth-arrested HepG2 cells; GFP intensity by live-cell imaging; type: cell-based; conditions: 24 h post-transfection
Source text: DNA construct design. Each DTS was constructed in pentameric repeat using a 15 bp spacer between each TFBS. The DTS was appended just 5′ to the promoter, effectively in a putative enhancer region. Various promoters were employed in these constructs, including CBh (a variant of the CAG promoter) and TTR. Several reporter genes were employed in these constructs, including enhanced Green Fluorescent Protein (eGFP). The polyadenylation (polyA) signal is a BGH-PolyA sequence. For pooled screening, unique molecular identifiers (UMIs; also known as barcodes) were used to distinguish between DNA constructs in a pool, and the UMIs were appended to the 3′UTR immediately downstream of the stop codon of eGFP, just preceding the BGH-PolyA sequence.
Cell culture. HepG2 cells were plated into a 384-well plate and grown for 48 hours to achieve confluency. Cell media was removed and replaced with culture media supplemented with Aphidicolin (1 uM) using EL406 automated plate washer and dispenser, then cells were transfected with DTS containing 17.5 ng plasmids using Lipofectamine 3000 without supplement. Expression of GFP was monitored using a Biotek Cytation 5 cell imaging reader over 24 hours to evaluate DTS activity. Total GFP per well was calculated and averaged over 4 well replicates.
pDNAs containing various DTSs (Table 12) were transfected individually into growth-arrested HepG2 cells. Cell growth was inhibited to prevent dissolution of the nuclear envelope. GFP expression was quantified over a period of 24 h post-transfection by measuring GFP intensity using quantitative live-cell imaging. Statistical analysis and hierarchical clustering methods were used to easily differentiate strong DTSs from weak DTSs in a heatmap (FIG. 5A). […] DTS.203: CREB1, PPARA, ONECUT1, HNF4A, PPARA. DTS.233: HNF1A, NR113, PPARA, HNF1A, PPARA. DTS.276: FOXA1, HNF4A, HNF1A, HNF4A, HNF1A.
For the arrayed screen, pDNAs containing various DTSs were transfected individually into growth-arrested HepG2 cells. For the pooled screen, pDNAs containing various DTSs were pooled together and transfected as a pool into growth-arrested HepG2 cells. Cell growth was inhibited to prevent dissolution of the nuclear envelope, which improves the accuracy of measuring DTS activity related to nuclear translocation. For the arrayed screen, GFP protein expression was quantified 24 h post-transfection by measuring GFP intensity using quantitative live-cell imaging. For the pooled screen, mRNA abundance for each DTS variant was determined using RNA-seq by deconvoluting the read counts for each UMI. A strong correlation between protein expression in the arrayed screen and mRNA expression in the pooled screen was observed (FIG. 6). […] Pooled screening can thus be used to quickly and reliably identify strong DTSs.

[2] = test system: growth-arrested HepG2 cells; assay: Pooled DTS screen in growth-arrested HepG2 cells; mRNA abundance by RNA-seq of UMIs; type: cell-based
Source text: Library cloning. Pooled DTS libraries were designed as described above. To ensure the highest quality library production of oligos for cloning, oligo lengths were standardized to 300 bp. To accommodate this standardized length the core sequence of each DTS was embedded center-justified in a neutral fragment of random DNA sequence. The flanks of each oligo contained unique golden gate restriction enzyme digestion sites (Bsal) for cloning of double stranded DNA into screening vectors. […] The proper UMI/DTS barcode correlation (termed here the “library registry”) was determined via excision of the hTTR/eGFP fragments, re-ligation of the vector, PCR amplification of the corresponding proximal DTS and UMI regions, and sequencing on an Illumina Miseq (2×150 bp reads). […]
Quantification of mRNA abundance from pooled DTS screens. […] The PCR amplified cDNA was then library prepped (NEBNext library prep for Illumina) and sequenced on an Illumina Miseq (2×150 bp reads). Counts for each UMI were translated into the corresponding DTS using the UMI/Barcode registry and changes in abundance of each DTS were statistically analyzed using a custom R script. The log 2 fold change is calculated by comparing the RNA level in the pool vs. its expected abundance, which is derived from the abundance in the corresponding input DNA pool. […]

| Molecule | GFP intensity / gene expression in arrayed screen compared to Spacer negative control [1] | mRNA abundance in pooled screen relative to Spacer negative control [2] |
| --- | --- | --- |
| DTS.203: combinatorial DTS: CREB1, PPARA, ONECUT1, HNF4A, PPARA binding sites (nucleic acid) DNA: CTGACGTCAGAGATTACTACTGATACAAAACTAGGTCAAAGGTCAAGATTACTACTGATAGTCTGCTAAGTCAATAATCAGAATAGATTACTACTGATACGCCCCAGCACACATGATCAGAAGATTACTACTGATAAGGTCAAAGGTCA | performed equivalently or better than NFKB | – |
| DTS.276: combinatorial DTS: FOXA1, HNF4A, HNF1A, HNF4A, HNF1A binding sites (nucleic acid) DNA: TGTTTACTTTAGATTACTACTGATATCGAGCGCAGGTCAAAGGTCACCTGCAGATTACTACTGATAGGTTAATAATTAACAGATTACTACTGATATCGAGCGCTGGGCAAAGGTCACCTGCAGATTACTACTGATAAGTATGGTTAATGATCTACAG | performed equivalently or better than NFKB | – |
| DTS.233: combinatorial DTS: HNF1A, NR1I3, PPARA, HNF1A, PPARA binding sites (nucleic acid) DNA: GGTTAATAATTAACAGATTACTACTGATACCTCTTCTCTGTGGGTGACCAGCGTCCTAAGATTACTACTGATAAACTAGGTCAAAGGTCAAGATTACTACTGATAAGTATGGTTAATGATCTACAGAGATTACTACTGATACAAAACTAGGTCAAAGGTCA | performed equivalently or better than NFKB; also recorded: robust increases | robust increases |
